Test results as given in PMC10786891, “Massively parallel profiling of RNA-targeting CRISPR-Cas13d”.
Residue numbers refer to the chain shown, from its start.

T1: EsCas13d, nuclease-dead (Eubacterium siraeum, UniProt B0MS50, R295A;H300A;R849A;H854A)
T1 sequence: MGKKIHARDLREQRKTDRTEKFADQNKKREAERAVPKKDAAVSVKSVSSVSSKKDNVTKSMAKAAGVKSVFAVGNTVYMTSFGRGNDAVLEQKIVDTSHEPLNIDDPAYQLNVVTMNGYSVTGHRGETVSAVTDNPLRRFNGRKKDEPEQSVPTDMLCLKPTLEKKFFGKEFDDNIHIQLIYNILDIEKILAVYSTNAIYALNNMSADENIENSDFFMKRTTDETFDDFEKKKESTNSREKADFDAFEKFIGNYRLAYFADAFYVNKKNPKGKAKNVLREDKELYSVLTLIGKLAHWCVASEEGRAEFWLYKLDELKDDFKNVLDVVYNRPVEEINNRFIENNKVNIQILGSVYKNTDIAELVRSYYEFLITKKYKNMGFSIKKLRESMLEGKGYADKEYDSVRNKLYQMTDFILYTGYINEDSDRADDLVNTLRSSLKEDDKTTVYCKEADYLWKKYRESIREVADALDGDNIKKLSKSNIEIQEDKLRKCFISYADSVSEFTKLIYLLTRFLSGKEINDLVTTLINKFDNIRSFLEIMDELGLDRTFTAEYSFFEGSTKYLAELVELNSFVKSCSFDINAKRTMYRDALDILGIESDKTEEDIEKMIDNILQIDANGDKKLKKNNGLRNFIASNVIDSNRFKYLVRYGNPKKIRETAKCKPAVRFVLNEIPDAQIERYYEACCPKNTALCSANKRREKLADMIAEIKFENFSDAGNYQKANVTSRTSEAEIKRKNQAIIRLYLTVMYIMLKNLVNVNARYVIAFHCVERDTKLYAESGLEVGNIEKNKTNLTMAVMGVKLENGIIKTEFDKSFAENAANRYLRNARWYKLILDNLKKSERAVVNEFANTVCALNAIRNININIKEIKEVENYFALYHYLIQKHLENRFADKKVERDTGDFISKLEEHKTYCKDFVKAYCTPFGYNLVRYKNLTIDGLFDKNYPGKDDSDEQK

B1: target 2 MT 5'PFS GUA 3'PFS CGA (mixed)
RNA 1: CACCCGUGCAAAAUUGCAGGGGUCUAAAACCUUCUCCAAAUUGUUUCAUCCU
RNA 2: GGGAAUGGAUCCACAUCUACGAAUUCGUAAGGAUGAAACAAUUUGGAGAAGCGAAGAUCGGAAGAGCACACGU
B2: target 2 MT 5'PFS GAA 3'PFS CCG (mixed)
RNA 1: B1 RNA 1
RNA 2: B1 RNA 2 with U28A, G53C, A54G
B3: target 2 MT 5'PFS GUA 3'PFS CGC (mixed)
RNA 1: B1 RNA 1
RNA 2: B1 RNA 2 with A54C
B4: target 2 MT 5'PFS GGC 3'PFS UUU (mixed)
RNA 1: B1 RNA 1
RNA 2: B1 RNA 2 with U28G, A29C, C52U, G53U, A54U
B5: target 2 MT 5'PFS UGU 3'PFS CCG (mixed)
RNA 1: B1 RNA 1
RNA 2: B1 RNA 2 with G27U, U28G, A29U, G53C, A54G
B6: target 2 MT 5'PFS GCG 3'PFS CAG (mixed)
RNA 1: B1 RNA 1
RNA 2: B1 RNA 2 with U28C, A29G, G53A, A54G
B7: target 2 MT 5'PFS GAG 3'PFS UAG (mixed)
RNA 1: B1 RNA 1
RNA 2: B1 RNA 2 with U28A, A29G, C52U, G53A, A54G
B8: target 2 MT 5'PFS UCA 3'PFS AUU (mixed)
RNA 1: B1 RNA 1
RNA 2: B1 RNA 2 with G27U, U28C, C52A, G53U, A54U
B9: target 2 MT 5'PFS GCG 3'PFS CAA (mixed)
RNA 1: B1 RNA 1
RNA 2: B1 RNA 2 with U28C, A29G, G53A
B10: target 2 MT 5'PFS GCG 3'PFS CAC (mixed)
RNA 1: B1 RNA 1
RNA 2: B1 RNA 2 with U28C, A29G, G53A, A54C
B11: target 2 MT 5'PFS GAA 3'PFS CCA (mixed)
RNA 1: B1 RNA 1
RNA 2: B1 RNA 2 with U28A, G53C
B12: target 2 MT 5'PFS GAG 3'PFS UAC (mixed)
RNA 1: B1 RNA 1
RNA 2: B1 RNA 2 with U28A, A29G, C52U, G53A, A54C
B13: target 2 MT 5'PFS GCG 3'PFS CAU (mixed)
RNA 1: B1 RNA 1
RNA 2: B1 RNA 2 with U28C, A29G, G53A, A54U
B14: target 2 MT 5'PFS GAG 3'PFS UAU (mixed)
RNA 1: B1 RNA 1
RNA 2: B1 RNA 2 with U28A, A29G, C52U, G53A, A54U
B15: target 2 MT 5'PFS UAU 3'PFS CUU (mixed)
RNA 1: B1 RNA 1
RNA 2: B1 RNA 2 with G27U, U28A, A29U, G53U, A54U
B16: target 1 insG 3' of 22,insU 3' of 12 (mixed)
RNA 1: CACCCGUGCAAAAAUGCAGGGGUCUAAAACUGAGCGGAUAACCUCUCUAUGG
RNA 2: GGGAAUGGAUCCACAUCUACGAAUUCGUACGCAUAGAGAGGUUUAUCCGCUCACCGAGAUCGGAAGAGCACACGU
B17: target 1 insG 3' of 1,insG 3' of 1 (mixed)
RNA 1: B16 RNA 1
RNA 2: GGGAAUGGAUCCACAUCUACGAAUUCGUACCAUAGAGAGGUUAUCCGCUCAGGCCGAGAUCGGAAGAGCACACGU

What follows are binders tested against T1, EsCas13d, nuclease-dead (assay: crRNA (strand 1, pre-loaded); Mg2+; 40 mM Tris-HCl pH 7.5, 150 mM NaCl, 6 mM MgCl2, 1 mM DTT, 0.1% Tween-20, 0.2 mg/ml BSA; 25 C; 10 min per concentration, then washed). Conditions: tags: His6-TwinStrep-SUMO cleaved; N-terminal SNAP kept (SNAP-Surface 488); label: 3' end held by stalled T7 RNA polymerase.

Q: B1 was tested. Which Kd did it give?
A: 6.4 ± 0.5 nM

Q: With B2 as the binder, how does the Kd read?
A: 10.5 ± 1.2 nM

Q: For B3, which Kd is on record?
A: 7.4 ± 0.5 nM

Q: With B4 as the binder, how does the Kd read?
A: 27 ± 5 nM

Q: B5 was tested. Which Kd did it give?
A: 12.6 ± 1.4 nM

Q: How did the Kd turn out when B6 was run?
A: 9.4 ± 0.9 nM

Q: How did the Kd turn out when B7 was run?
A: 6.2 ± 0.7 nM

Q: For B8, which Kd is on record?
A: 4.4 ± 0.5 nM

Q: Which Kd does the source give for B9 here?
A: 9.7 ± 1.9 nM

Q: For B10, which Kd is on record?
A: 10.4 ± 1.3 nM

Q: How did the Kd turn out when B11 was run?
A: 25 ± 6 nM

Q: Which Kd does the source give for B12 here?
A: 10.6 ± 1.7 nM

Q: How did the Kd turn out when B13 was run?
A: 13 ± 4 nM

Q: With B14 as the binder, how does the Kd read?
A: 5.6 ± 0.5 nM

Q: Which Kd does the source give for B15 here?
A: 54 ± 14 nM

Q: With B16 as the binder, how does the Kd read?
A: 20.5 ± 1.8 nM

Q: For B17, which Kd is on record?
A: 8.6 ± 0.5 nM
